B1: IKZF1 (parent)
chain: RDPFECNMCGYHSQDRYEFSSHIT

Variants of: B1
Experiment: protein stability index of a GFP-peptide fusion (GPS, HEK-293T) (PSI 1-6); higher = more stable
Settings: c terminus: a fixed tail appended
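Note: lentivirally expressed fusions sorted by FACS into six bins by GFP to DsRed ratio, PSI derived from sequencing read proportions per bin multiplied by bin number.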

Compared with RDPFICNMCGYHSQDRYEFSSHIT, RDPFCCNMCGYHSQDRYEFSSHIT is lower in protein stability index: 2.38 for the first, 2.11 for the second.

Going from RDPFMCNMCGYHSQDRYEFSSHIT to RDPFSCNMCGYHSQDRYEFSSHIT, the protein stability index falls from 1.88 to 1.33.

First: RDPFTCNMCGYHSQDRYEFSSHIT
Second: RDPFQCNMCGYHSQDRYEFSSHIT
The protein stability index of the first is higher: 2.38 for the first, 2.06 for the second.

First: RDPFGCNMCGYHSQDRYEFSSHIT
Second: RDPFVCNMCGYHSQDRYEFSSHIT
The protein stability index of the first is lower: 1.82 for the first, 2.01 for the second.

First: RDPFHCNMCGYHSQDRYEFSSHIT
Second: RDPFLCNMCGYHSQDRYEFSSHIT
The protein stability index of the first is lower: 1.9 for the first, 2.08 for the second.

Going from RDPFKCNMCGYHSQDRYEFSSHIT to RDPFPCNMCGYHSQDRYEFSSHIT, the protein stability index falls from 2.07 to 1.91.

First: RDPFDCNMCGYHSQDRYEFSSHIT
Second: RDPFACNMCGYHSQDRYEFSSHIT
The protein stability index of the first is higher: 2.7 for the first, 2.13 for the second.

Compared with RDPFNCNMCGYHSQDRYEFSSHIT, RDPFFCNMCGYHSQDRYEFSSHIT is higher in protein stability index: 1.71 for the first, 1.78 for the second.

Compared with RDPFRCNMCGYHSQDRYEFSSHIT, RDPFWCNMCGYHSQDRYEFSSHIT is lower in protein stability index: 1.92 for the first, 1.59 for the second.

Compared with RDGFECNMCGYHSQDRYEFSSHIT, RDYFECNMCGYHSQDRYEFSSHIT is lower in protein stability index: 1.94 for the first, 1.5 for the second.

First: RDLFECNMCGYHSQDRYEFSSHIT
Second: RDIFECNMCGYHSQDRYEFSSHIT
The protein stability index of the first is lower: 1.68 for the first, 1.91 for the second.

Compared with RDDFECNMCGYHSQDRYEFSSHIT, RDMFECNMCGYHSQDRYEFSSHIT is lower in protein stability index: 2.99 for the first, 1.76 for the second.

Going from RDWFECNMCGYHSQDRYEFSSHIT to RDRFECNMCGYHSQDRYEFSSHIT, the protein stability index rises from 1.69 to 2.04.

Compared with RDKFECNMCGYHSQDRYEFSSHIT, RDNFECNMCGYHSQDRYEFSSHIT is lower in protein stability index: 2.04 for the first, 1.94 for the second.

First: RDHFECNMCGYHSQDRYEFSSHIT
Second: RDEFECNMCGYHSQDRYEFSSHIT
The protein stability index of the first is higher: 2.59 for the first, 2.29 for the second.

First: RDCFECNMCGYHSQDRYEFSSHIT
Second: RDSFECNMCGYHSQDRYEFSSHIT
The protein stability index of the first is higher: 2.21 for the first, 2.03 for the second.

Compared with RDTFECNMCGYHSQDRYEFSSHIT, RDAFECNMCGYHSQDRYEFSSHIT is lower in protein stability index: 2.02 for the first, 1.64 for the second.

Compared with RDFFECNMCGYHSQDRYEFSSHIT, RDQFECNMCGYHSQDRYEFSSHIT is higher in protein stability index: 1.44 for the first, 2.18 for the second.

Compared with RDVFECNMCGYHSQDRYEFSSHIT, KDPFECNMCGYHSQDRYEFSSHIT is higher in protein stability index: 1.76 for the first, 2.15 for the second.

Going from YDPFECNMCGYHSQDRYEFSSHIT to QDPFECNMCGYHSQDRYEFSSHIT, the protein stability index rises from 1.73 to 2.55.

First: DDPFECNMCGYHSQDRYEFSSHIT
Second: FDPFECNMCGYHSQDRYEFSSHIT
The protein stability index of the first is higher: 2.73 for the first, 1.88 for the second.

Going from CDPFECNMCGYHSQDRYEFSSHIT to WDPFECNMCGYHSQDRYEFSSHIT, the protein stability index falls from 2.47 to 2.2.

Compared with SDPFECNMCGYHSQDRYEFSSHIT, GDPFECNMCGYHSQDRYEFSSHIT is higher in protein stability index: 2.1 for the first, 2.49 for the second.

Compared with HDPFECNMCGYHSQDRYEFSSHIT, ADPFECNMCGYHSQDRYEFSSHIT is lower in protein stability index: 2.92 for the first, 2.63 for the second.

First: EDPFECNMCGYHSQDRYEFSSHIT
Second: TDPFECNMCGYHSQDRYEFSSHIT
The protein stability index of the first is higher: 2.67 for the first, 2.23 for the second.

Compared with PDPFECNMCGYHSQDRYEFSSHIT, MDPFECNMCGYHSQDRYEFSSHIT is lower in protein stability index: 2.43 for the first, 2.26 for the second.

Compared with LDPFECNMCGYHSQDRYEFSSHIT, VDPFECNMCGYHSQDRYEFSSHIT is lower in protein stability index: 2.31 for the first, 2.25 for the second.

First: IDPFECNMCGYHSQDRYEFSSHIT
Second: NDPFECNMCGYHSQDRYEFSSHIT
The protein stability index of the first is lower: 2.13 for the first, 2.44 for the second.

Compared with RDPIECNMCGYHSQDRYEFSSHIT, RDPGECNMCGYHSQDRYEFSSHIT is higher in protein stability index: 1.89 for the first, 2.68 for the second.

Going from RDPVECNMCGYHSQDRYEFSSHIT to RDPYECNMCGYHSQDRYEFSSHIT, the protein stability index falls from 2.2 to 2.07.

Compared with RDPDECNMCGYHSQDRYEFSSHIT, RDPCECNMCGYHSQDRYEFSSHIT is lower in protein stability index: 2.9 for the first, 2.31 for the second.

Going from RDPRECNMCGYHSQDRYEFSSHIT to RDPHECNMCGYHSQDRYEFSSHIT, the protein stability index falls from 3.08 to 2.47.

First: RDPKECNMCGYHSQDRYEFSSHIT
Second: RDPQECNMCGYHSQDRYEFSSHIT
The protein stability index of the first is lower: 2.77 for the first, 2.91 for the second.

First: RDPWECNMCGYHSQDRYEFSSHIT
Second: RDPMECNMCGYHSQDRYEFSSHIT
The protein stability index of the first is lower: 2.27 for the first, 2.4 for the second.

Compared with RDPTECNMCGYHSQDRYEFSSHIT, RDPPECNMCGYHSQDRYEFSSHIT is lower in protein stability index: 2.97 for the first, 2.54 for the second.

First: RDPSECNMCGYHSQDRYEFSSHIT
Second: RDPNECNMCGYHSQDRYEFSSHIT
The protein stability index of the first is lower: 2.52 for the first, 3.05 for the second.

Compared with RDPEECNMCGYHSQDRYEFSSHIT, RDPLECNMCGYHSQDRYEFSSHIT is lower in protein stability index: 2.66 for the first, 2.17 for the second.

First: RDPAECNMCGYHSQDRYEFSSHIT
Second: RSPFECNMCGYHSQDRYEFSSHIT
The protein stability index of the first is higher: 2.44 for the first, 1.73 for the second.

First: RAPFECNMCGYHSQDRYEFSSHIT
Second: RKPFECNMCGYHSQDRYEFSSHIT
The protein stability index of the first is lower: 1.63 for the first, 1.96 for the second.

First: RIPFECNMCGYHSQDRYEFSSHIT
Second: RYPFECNMCGYHSQDRYEFSSHIT
The protein stability index of the first is higher: 2.2 for the first, 1.77 for the second.

Compared with RVPFECNMCGYHSQDRYEFSSHIT, RHPFECNMCGYHSQDRYEFSSHIT is lower in protein stability index: 2.21 for the first, 1.75 for the second.

Going from RGPFECNMCGYHSQDRYEFSSHIT to RNPFECNMCGYHSQDRYEFSSHIT, the protein stability index rises from 1.95 to 1.96.

Compared with RFPFECNMCGYHSQDRYEFSSHIT, RMPFECNMCGYHSQDRYEFSSHIT is higher in protein stability index: 1.57 for the first, 1.68 for the second.

Compared with RLPFECNMCGYHSQDRYEFSSHIT, RRPFECNMCGYHSQDRYEFSSHIT is higher in protein stability index: 1.93 for the first, 1.99 for the second.

Going from RCPFECNMCGYHSQDRYEFSSHIT to RTPFECNMCGYHSQDRYEFSSHIT, the protein stability index falls from 2.19 to 1.82.

Compared with RWPFECNMCGYHSQDRYEFSSHIT, RPPFECNMCGYHSQDRYEFSSHIT is higher in protein stability index: 1.92 for the first, 1.98 for the second.

Going from REPFECNMCGYHSQDRYEFSSHIT to RQPFECNMCGYHSQDRYEFSSHIT, the protein stability index falls from 2.18 to 2.04.
